Test [1] addresses human CD137 ECD-mIgG2a (human). The test can be described thus: competition ELISA on coated human CD137 ECD-mIgG2a: BGA-5623 (IgG4) in the presence of serially diluted human CD137 ligand ECD-mIgG2a, bound antibody detected with HRP anti-human IgG; competitor: BGA-5623 (IgG4). In general terms: An ELISA detects its analyte on a solid surface through an enzyme-linked reagent.
In test [2] the target is T1, full-length human CD137 (huCD137) (human, UniProt Q07011 24-255).
T1 construct: On transduced Hut78 cells (Hut78/huCD137), transiently on HEK293 cells, or natively on PBMC/T cells; also called TNFRSF9; 4-1BB
T1 sequence (Q07011 24-255 limits assumed): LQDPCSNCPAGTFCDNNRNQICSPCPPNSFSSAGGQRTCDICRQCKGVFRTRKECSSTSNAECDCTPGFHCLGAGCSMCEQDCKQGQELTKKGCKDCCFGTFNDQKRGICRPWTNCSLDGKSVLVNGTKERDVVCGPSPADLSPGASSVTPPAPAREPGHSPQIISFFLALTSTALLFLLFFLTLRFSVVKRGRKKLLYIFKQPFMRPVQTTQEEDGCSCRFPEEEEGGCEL
In words: flow cytometry ligand competition on Hut78/huCD137: BGA-4712 (VH-Fc) in the presence of serially diluted human CD137 ligand-mIgG2a, bound BGA-4712 detected with anti-hu IgG Fc; competitor: BGA-4712 [panel C]. On the technique in general: A flow cytometer gives signals particle by particle.
From the text: Cell fluorescence was quantified using a flow cytometer (Guava easyCyte™ 8HT, Merck-Millipore, USA). Ligand competition was also applied in a flow cytometry based assay.

In test [3] the target is T2, human CEA on cells (human, UniProt P06731 35-685).
T2 construct: whole, on cells; also called CT26/CEA; MKN45
T2 sequence (looked up): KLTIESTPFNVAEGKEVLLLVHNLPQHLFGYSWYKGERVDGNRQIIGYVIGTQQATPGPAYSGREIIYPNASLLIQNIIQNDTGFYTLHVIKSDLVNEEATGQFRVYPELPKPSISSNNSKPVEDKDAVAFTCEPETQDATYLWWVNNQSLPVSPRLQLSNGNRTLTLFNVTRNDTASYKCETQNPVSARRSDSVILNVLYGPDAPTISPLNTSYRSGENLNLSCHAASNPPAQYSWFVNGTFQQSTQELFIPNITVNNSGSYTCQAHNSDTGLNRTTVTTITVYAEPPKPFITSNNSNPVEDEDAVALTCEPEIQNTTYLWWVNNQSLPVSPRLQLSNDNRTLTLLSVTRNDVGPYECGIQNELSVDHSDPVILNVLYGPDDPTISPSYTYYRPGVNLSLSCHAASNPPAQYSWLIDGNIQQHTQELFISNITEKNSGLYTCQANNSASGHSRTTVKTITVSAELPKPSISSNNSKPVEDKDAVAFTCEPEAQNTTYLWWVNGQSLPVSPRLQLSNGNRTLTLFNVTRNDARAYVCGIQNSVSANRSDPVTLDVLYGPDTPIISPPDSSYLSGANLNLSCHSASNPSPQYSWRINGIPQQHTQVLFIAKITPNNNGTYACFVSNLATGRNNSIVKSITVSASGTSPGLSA
In words: flow cytometry on MKN45 cells [panel A].

In test [4] the target is T2, human CEA on cells. In words: flow cytometry on CT26/CEA cells [panel A].
The target in test [5] is T1, full-length human CD137 (huCD137). In words: flow cytometry on Hut78/huCD137 cells [panel B].
The target of the next test is T3, TNFRSF7(CD27) (UniProt P26842 21-192, limits assumed).
T3 construct: Bought protein
T3 sequence (looked up): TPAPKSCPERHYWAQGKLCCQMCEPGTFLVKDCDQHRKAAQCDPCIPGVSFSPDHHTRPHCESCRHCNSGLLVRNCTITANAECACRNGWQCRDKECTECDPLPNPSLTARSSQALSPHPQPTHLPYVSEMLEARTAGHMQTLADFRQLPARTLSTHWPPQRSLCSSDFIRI
In words: antigen ELISA, receptor coated at 10 ug/ml, detection with HRP anti-human IgG.

The next test has as its target T4, TNFRSF1A(CD120a) (UniProt P19438 22-211, limits assumed).
T4 construct: Bought protein
T4 sequence (looked up): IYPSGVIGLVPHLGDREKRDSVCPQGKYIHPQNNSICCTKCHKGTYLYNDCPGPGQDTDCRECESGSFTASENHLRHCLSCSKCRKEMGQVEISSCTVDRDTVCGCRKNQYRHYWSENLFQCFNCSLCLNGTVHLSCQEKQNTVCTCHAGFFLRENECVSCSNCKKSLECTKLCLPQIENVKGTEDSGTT
The test is described as above.

The target of the next test is T5, human CD40 ECD (human, UniProt P25942 21-194).
T5 construct: also called TNFRSF5(CD40); huCD40
T5 sequence (P25942 21-194 limits assumed): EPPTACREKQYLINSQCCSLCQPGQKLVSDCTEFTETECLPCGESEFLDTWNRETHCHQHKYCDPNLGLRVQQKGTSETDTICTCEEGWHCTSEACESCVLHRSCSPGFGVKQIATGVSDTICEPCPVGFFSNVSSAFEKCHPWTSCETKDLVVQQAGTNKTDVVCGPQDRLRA
The test is described as above.

The target in the next test is T6, TNFRSF1B(CD120b) (UniProt P20333 23-257).
T6 construct: Bought protein
T6 sequence (looked up): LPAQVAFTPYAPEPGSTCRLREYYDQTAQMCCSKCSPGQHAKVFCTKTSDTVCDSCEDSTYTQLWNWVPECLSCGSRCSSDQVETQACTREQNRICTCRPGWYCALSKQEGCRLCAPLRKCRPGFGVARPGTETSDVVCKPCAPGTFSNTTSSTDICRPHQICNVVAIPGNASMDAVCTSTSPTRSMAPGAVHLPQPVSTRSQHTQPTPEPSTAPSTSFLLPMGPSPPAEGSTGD
Described as above.

Test [6] has as its target T1, full-length human CD137 (huCD137). The test can be described thus: flow cytometry ligand competition on Hut78/huCD137: human CD137 ligand ECD-mIgG2a in the presence of serially diluted antibody, ligand detected with goat anti-murine IgG-APC; blocked ligand: m5.
Test [7] has as its target T2, human CEA on cells. In words: flow cytometry on CT26/CEA cells.
Test [8] addresses T1, full-length human CD137 (huCD137). The test can be described thus: flow cytometry on Hut78/huCD137 cells.
For test [9], the target named is human CD137 ECD-mIgG2a (human). In words: SPR, antibody captured on anti-human Fc surface; analyte taken as human CD137 ECD-mIgG2a. In general terms: Surface plasmon resonance follows binding to a sensor surface in real time, without labels.
Chain of human CD137 ECD-mIgG2a (human) (chain, as listed by the source limits assumed): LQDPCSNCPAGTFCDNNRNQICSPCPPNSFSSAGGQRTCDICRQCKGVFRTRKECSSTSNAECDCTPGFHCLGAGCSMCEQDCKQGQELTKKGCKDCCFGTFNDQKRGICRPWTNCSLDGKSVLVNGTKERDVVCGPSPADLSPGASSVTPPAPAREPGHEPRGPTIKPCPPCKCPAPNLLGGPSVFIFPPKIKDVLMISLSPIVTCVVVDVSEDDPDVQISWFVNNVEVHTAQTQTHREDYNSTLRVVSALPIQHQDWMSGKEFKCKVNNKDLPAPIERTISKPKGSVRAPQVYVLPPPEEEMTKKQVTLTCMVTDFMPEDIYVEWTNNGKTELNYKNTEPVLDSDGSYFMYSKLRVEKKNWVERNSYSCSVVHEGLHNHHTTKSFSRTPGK
Test [10] has as its target human CD137 ECD-mIgG2a (human). The test can be described thus: SPR, human CD137 ECD-mIgG2a.
In test [11] the target is human CD137 ECD-mIgG2a (human). The test can be described thus: SPR, multispecific antibody captured on anti-human IgG Fc chip, human CD137 ECD-mIgG2a flowed over.
Method: Briefly, anti-human IgG (Fc) antibody was immobilized on an activated CM5 biosensor chip (Cat.: BR100839, GE Life Sciences). Anti-huCD137 monoclonal antibodies or multispecific antibodies were flown through the chip surface and captured by anti-human IgG (Fc) antibody. […] The equilibrium dissociation constant (KD)) was calculated as the ratio koff/kₒₙ.
The target of test [12] is human CD137 ECD-mIgG2a (human). The test can be described thus: SPR, human CD137 ECD-mIgG2a. This is another data set of the same source.
Test [13] addresses T1, full-length human CD137 (huCD137). In words: flow cytometry on Hut78/huCD137 cells. This is another data set of the same source.

Where two headings read alike, the source gives them in different places.

Method for TNFRSF1A(CD120a): (§1) For antigen ELISA, a Maxisorp immunoplate was coated with antigens and blocked with 3% BSA (w/v) in PBS buffer (blocking buffer). Monoclonal VH domain antibodies were blocked with blocking buffer for 30 min and added to wells of the ELISA plate for 1 hour.
Method for TNFRSF1B(CD120b): as §1
Method for TNFRSF7(CD27): as §1
Method for human CD40 ECD: as §1

B1: human CD137 ligand-mIgG2a (Fc fusion)
chain: EPRGPTIKPCPPCKCPAPNLLGGPSVFIFPPKIKDVLMISLSPIVTCVVVDVSEDDPDVQISWFVNNVEVHTAQTQTHREDYNSTLRVVSALPIQHQDWMSGKEFKCKVNNKDLPAPIERTISKPKGSVRAPQVYVLPPPEEEMTKKQVTLTCMVTDFMPEDIYVEWTNNGKTELNYKNTEPVLDSDGSYFMYSKLRVEKKNWVERNSYSCSVVHEGLHNHHTTKSFSRTPGKGGGGSREGPELSPDDPAGLLDLRQGMFAQLVAQNVLLIDGPLSWYSDPGLAGVSLTGGLSYKEDTKELVVAKAGVYYVFFQLELRRVVAGEGSGSVSLALHLQPLRSAAGAAALALTVDLPPASSEARNSAFGFQGRLLHLSAGQRLGVHLHTEARARHAWQLTQGATVLGLFRVTPEIPAGLPSPRSE
notes: also called human CD137 ligand ECD-mIgG2a; huCD137 ligand
For the molecule B1, the “IC50 (read off the curve)” value with human CD137 ECD-mIgG2a [1] was roughly 1 µg/mL. Further, the 50% inhibitory concentration (IC50) in test [2] was found to be 0.42 µg/mL.

B2: anti-CEA Ab (IgG1) (antibody, V domains shown)
VH: QVQLVQSGAEVKKPGASVKVSCKASGYIFTSYYLHWVRQAPGQGLEWIGYINPQTGKTSYAQKFQGRVTMTRDTSTSTVYMELSSLRSEDTAVYYCAREYGNYNYPLDYWGQGTLVTVSS
VL: DIQMTQSPSSLSASVGDRVTITCRASENQYGYLAWYQQKPGKVPKLLIYNYKNLVEGVPSRFSGSGSGTDFTLTISSLQPEDVATYYCQHHLGTPYTFGQGTKVEIKR
notes: also called anti-CEA antibody
For B2, the results for the 50% effective concentration (EC50 (read off the curve)) in the test with human CEA on cells [3] and with human CEA on cells [4] were roughly 0.5 µg/mL and roughly 1 µg/mL, respectively. Further, the binding result in test [5] is on record as “no binding (tested: just above 10^2 ug/ml)”.

B3: Urelumab analog (antibody, human IgG4 S228P, kappa, V domains shown)
VH: QVQLQQWGAGLLKPSETLSLTCAVYGGSFSGYYWSWIRQSPEKGLEWIGEINHGGYVTYNPSLESRVTISVDTSKNQFSLKLSSVTAADTAVYYCARDYGPGNYDWYFDLWGRGTLVTVSS
VL: EIVLTQSPATLSLSPGERATLSCRASQSVSSYLAWYQQKPGQAPRLLIYDASNRATGIPARFSGSGSGTDFTLTISSLEPEDFAVYYCQQRSNWPPALTFGGGTKVEIKR
Turning to B3, the binding result with TNFRSF7(CD27), in the test with TNFRSF1A(CD120a), in the test with human CD40 ECD and with TNFRSF1B(CD120b) was “no binding” in each case. The “IC50 (read off the curve)” value in [6] is roughly 0.03 µg/mL.

B4: A-CD137×CEA (bispecific antibody, human IgG1, kappa)
heavy: QVQLVQSGAEVKKPGASVKVSCKASGYIFTSYYLHWVRQAPGQGLEWIGYINPQTGKTSYAQKFQGRVTMTRDTSTSTVYMELSSLRSEDTAVYYCAREYGNYNYPLDYWGQGTLVTVSSASTKGPSVFPLAPSSKSTSGGTAALGCLVKDYFPEPVTVSWNSGALTSGVHTFPAVLQSSGLYSLSSVVTVPSSSLGTQTYICNVNHKPSNTKVDKKVEPKSCDKTHTCPPCPAPPAAGPSVFLFPPKPKDTLMISRTPEVTCVVVDVSHEDPEVKFNWYVDGVEVHNAKTKPREEQYNSTYRVVSVLTVLHQDWLNGKEYKCKVSNKALAAPIEKTISKAKGQPREPQVYTLPPSREEMTKNQVSLTCLVKGFYPSDIAVEWESNGQPENNYKTTPPVLDSDGSFFLYSKLTVDKSRWQQGNVFSCSVMHEALHNHYTQKSLSLSPGKGGGGSEVQLLESGGGLVQPGGSLRLSCAASGFMLSAEDVGWVRQAPGKGLEWVSAILDFGGSTYYADSVKGRFTISRDNSKNTLYLQMNSLRAEDTAVYYCARVVYHAGGGVTFDYWGQGTLVTVSS
light: DIQMTQSPSSLSASVGDRVTITCRASENQYGYLAWYQQKPGKVPKLLIYNYKNLVEGVPSRFSGSGSGTDFTLTISSLQPEDVATYYCQHHLGTPYTFGQGTKVEIKRTVAAPSVFIFPPSDEQLKSGTASVVCLLNNFYPREAKVQWKVDNALQSGNSQESVTEQDSKDSTYSLSSTLTLSKADYEKHKVYACEVTHQGLSSPVTKSFNRGEC
notes: Symmetric IgG-like; inert Fc; also called Format A
B4: the half-maximal effective concentration (EC50) with human CEA on cells [7] is 0.75 µg/mL; in test [8], 0.57 µg/mL. Besides, the dissociation constant (Kd) in the test with human CD137 ECD-mIgG2a [9] and with human CD137 ECD-mIgG2a [10] was 360 nM each time. The same molecule had an off-rate constant (koff) with human CD137 ECD-mIgG2a [9] of 0.00215 s⁻¹. In addition, the association rate constant (kon) in the test with human CD137 ECD-mIgG2a [9] is 5970 M⁻¹ s⁻¹.

B5: Format A-BGA-7556 (bispecific antibody, human IgG1, kappa)
heavy: QVQLVQSGAEVKKPGASVKVSCKASGYIFTSYYLHWVRQAPGQGLEWIGYINPQTGKTSYAQKFQGRVTMTRDTSTSTVYMELSSLRSEDTAVYYCAREYGNYNYPLDYWGQGTLVTVSSASTKGPSVFPLAPSSKSTSGGTAALGCLVKDYFPEPVTVSWNSGALTSGVHTFPAVLQSSGLYSLSSVVTVPSSSLGTQTYICNVNHKPSNTKVDKKVEPKSCDKTHTCPPCPAPPAAGPSVFLFPPKPKDTLMISRTPEVTCVVVDVSHEDPEVKFNWYVDGVEVHNAKTKPREEQYNSTYRVVSVLTVLHQDWLNGKEYKCKVSNKALAAPIEKTISKAKGQPREPQVYTLPPSREEMTKNQVSLTCLVKGFYPSDIAVEWESNGQPENNYKTTPPVLDSDGSFFLYSKLTVDKSRWQQGNVFSCSVMHEALHNHYTQKSLSLSPGKGGGGSEVQLLESGGGLVQPGGSLRLSCAASGFTLSAEDVGWVRQAPGKGLEWVSAILDFGGSTYYAESVKGRFTISRDNAKNTLYLQMSSLRAEDTAVYYCARVVYHAGGGVTFDYRGQGTQVTVSS
light: DIQMTQSPSSLSASVGDRVTITCRASENQYGYLAWYQQKPGKVPKLLIYNYKNLVEGVPSRFSGSGSGTDFTLTISSLQPEDVATYYCQHHLGTPYTFGQGTKVEIKRTVAAPSVFIFPPSDEQLKSGTASVVCLLNNFYPREAKVQWKVDNALQSGNSQESVTEQDSKDSTYSLSSTLTLSKADYEKHKVYACEVTHQGLSSPVTKSFNRGEC
notes: Light chain by the description of Format A; also called BGA-7556 in Format A-CD137 × CEA
As to B5, the Kd is 649 nM with human CD137 ECD-mIgG2a [11] and 669 nM with human CD137 ECD-mIgG2a [12]. In [13], this molecule returned an EC50 of 3.23 µg/mL.

By IC50 is commonly meant the concentration needed to halve the response being measured. One may read the EC50 (read off the curve) as the concentration giving half of the maximal effect. Usually EC50 stands for the concentration at which the effect is half-maximal. Low values mean an effect from little substance, high ones a need for much substance. As usually defined, the Kd is the constant that tells how readily two partners part at equilibrium. Read a low Kd as a tighter complex. One may read the koff as a measure of how fast the partners let go of each other. Low values mean slow dissociation, high ones fast dissociation. The kon is the second-order rate constant of association.

For the origin of these results see US20240209106A1 (BEIGENE SWITZERLAND, published 2024).
